Target: Putative NADPH-quinone reductase
Assay: SAXS

“Putative NADPH-quinone reductase (natural protein)” showed a fraction of dimer in the oligomer mixture of 47% and a fraction of tetramer in the oligomer mixture of 53%.
